From article PMC7160950, “Identification and analysis of KLF13 variants in patients with congenital heart disease” (BMC Medical Genetics, 2020)

Molecular target: Kruppel-like factor 13 (KLF13), wild type, myc-tagged (human, UniProt Q9Y2Y9 1-288)
Experiment: cell-based or functional assay

Chain of Kruppel-like factor 13 (KLF13), wild type, myc-tagged (Q9Y2Y9 whole entry): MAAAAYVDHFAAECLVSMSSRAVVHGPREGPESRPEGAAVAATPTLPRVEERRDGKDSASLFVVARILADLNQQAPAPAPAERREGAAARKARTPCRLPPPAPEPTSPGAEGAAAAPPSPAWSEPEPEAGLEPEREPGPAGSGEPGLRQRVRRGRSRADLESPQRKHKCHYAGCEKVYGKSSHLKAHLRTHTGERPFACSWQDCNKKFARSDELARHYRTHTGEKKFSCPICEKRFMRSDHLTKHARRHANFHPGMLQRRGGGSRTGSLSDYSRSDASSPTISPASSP

BNP-luciferase reporter activation in NIH 3 T3 cells cotransfected with KLF13 and TBX5: ≤ 75 fold
B1: TBX5 (natural protein, UniProt Q99593 1-518, looked up)
chain: MADADEGFGLAHTPLEPDAKDLPCDSKPESALGAPSKSPSSPQAAFTQQGMEGIKVFLHERELWLKFHEVGTEMIITKAGRRMFPSYKVKVTGLNPKTKYILLMDIVPADDHRYKFADNKWSVTGKAEPAMPGRLYVHPDSPATGAHWMRQLVSFQKLKLTNNHLDPFGHIILNSMHKYQPRLHIVKADENNGFGSKNTAFCTHVFPETAFIAVTSYQNHKITQLKIENNPFAKGFRGSDDMELHRMSRMQSKEYPVVPRSTVRQKVASNHSPFSSESRALSTSSNLGSQYQCENGVSGPSQDLLPPPNPYPLPQEHSQIYHCTKRKEEECSTTDHPYKKPYMETSPSEEDSFYRSSYPQQQGLGASYRTESAQRQACMYASSAPPSEPVPSLEDISCNTWPSMPSYSSCTVTTVQPMDRLPYQHFSAHFTSGPLVPRLAGMANHGSPQLGEGMFQHQTSVAHQPVVRQCGPQTGLQSPGTLQPPEFLYSHGVPRTLSPHQYHSVHGVGMVPEWSDNS
